This data set in a line: yeast display, Sf9 membrane polyspecificity reagent, FACS + sequencing; frameworks hold sequencing errors. Summed up:
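Galactose-induced (36–48 hours) yeast carrying a synthetic nanobody display library were exposed to 10% biotinylated, detergent-solubilized Sf9 membrane reagent at 4 °C for 1 hour. FACS followed streptavidin microbead enrichment, using low and high (top ~1%) gates for expression (anti-HA) and reagent binding (streptavidin). Colony PCR, MiSeq 2 × 250 sequencing and CDR-length filtering followed. Labels for polyreactivity reflect the gate of origin.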
On to “QDQLVESGGGLVQAGGSLRLSCAASGRILKYNAMGWYRQAPGKERELVAAISYRGGSTYYADSVKGRFTISRDNAMNTVYLQMNSLKPEDTAVYYCNAGGGILNGPLFDYWGQGTQVTVSS”, for which the “polyreactivity (PSR sort gate)” value is given as “low polyreactivity”.
The value for “QVQLVESGGGLVQAGGSLRLSCAASGRTFWMNAMGWYRQATGKERELVATISSSSGSTTYADSVKGRFTISRDNAKNTVYLQMNSLKPEDTAVYYCNVDDPFYSGVVEFDYWGQGTQVTVSS” was “low polyreactivity”; that for “QVQLVESGGGLVQAGGSLRLSSAASGFTLSRYAMGWYRQAPGKERELVASITSGGSTNYADSVKGRFTISRDNAKNTVYLQMNSLKPEDTAVYYCAARYPYRSYKLSHSYARPYGYWGQGTQVTVSS” was “high polyreactivity”; that for “QVQLVETGGGLVQAGGSLRLSCAGSGHIFPTNARGWYRQSPWKARELVAVISESVGSTYYADSVKGRFTISRDNSKNTVYLQMNSLKPEDTAVYYCAKQSLYPSLDADYDYWGQGTQVNVSS” was “low polyreactivity”.
The value for “QVQLVESGGGLVQAGGSLRLSCAASGSIFSFYAMGWYRQAPGKERELVADISLTTDSTYADSVKGRFTISRDNAKNTVYLQMNSLKPEDTAVYYCAADGSNWEYDYWGQGTQVTVSS” was “low polyreactivity”; that for “QVQLVESGGGLVQAGGSLRLSCAASGFTSYDNAMGWYRPAPGKERELVAASTWDGGSTYYADSVKGRFTISRDNAKNTVDLQMNSLKPEDTAVYDCAADLADFYPRYNYWGQGTQVTVSS” was “low polyreactivity”; that for “QVQRVESGGGLVQAGGSLRLSCAASAFTFGANAMGWSRQAPGKERELVAAISVSDGITYYADSVKGRFTISRDNAKNTVYLLMNSLKPEDTAVYYCAAETYGYLFHSYDYWGQGTQVTVSS” was “low polyreactivity”.
The value for “QVQLVESGGGLVQSGGSLRLSCAASGSIFTWYTMGWYRQAPGKERELVAAISWSGGRTYYADSVKGRFTISRDNAKNTVYLQMNSLKPEDTAVYYCAASAYGRPPFDYWGQGTQVTVSS” was “high polyreactivity”.
Take “QVQIVESGGGLVQAGGSLRLSCAASGSISVANAMGWYRQAPGKERELVAAITDSGDDTYYADSVKGRFTISRDNAKNTVYFQMNSLKPEDTELYYCAVEAWSVPPYDYWGQGTQVTVSS”: the “polyreactivity (PSR sort gate)” value is reported as “low polyreactivity”.
On to “QVQLVESGGGLVQAGGSLRLSCAASGSTFVYYTMGLYRQAPGKERELVAAISWRGDDTYYSDSVKGRFTISRDNAKNTVYLQMNSLKPEDTAVYYCAGEPVSTYYWTFGDYWGQGYQVTVSS”, for which the “polyreactivity (PSR sort gate)” value is given as “low polyreactivity”.
The value for “QVQLVESGGGLVQAGGSLRLSCAASGSIFAANTMGWYRQAPGKERELVAAITGSGASTYYADSVKGRFTISRDNAKNTVYLQMNSLKPEDTAVYYCAARRYTSYYKDGWYAYYYWGQGTQVTVSS” was “high polyreactivity”; that for “QVQLVESGRGLVQAGGSLRLSCAASGSTFNRNAMGWYRQAPGKERELVAAITIRGGSTSYADSVKGRFTISRDNAKNTVYLQMNSLKPEDTAVYYCNRQSRNAGGYYWGQGTHVTVSS” was “low polyreactivity”; that for “QVQLVESGGGLVQAGGSLRLSCAASGIIFSGYAMGWYRQAPGKERELVAVISSSGGGTYYADSVKGRFTISRDKAKNTVYLQMNSLIPEDTAVYYCAARGREAIHGYWGQGTQVTLSS” was “high polyreactivity”.
The value for “QVQLVESGGGLVQAGGSLRLSCAASGLTLRWYDMGWYRQAPGKERELVAAITTNGGSTYYADSVKGRFTISRDNAKNTVYLQMNSLKPEDTAVYYCAALYWRSTVGAYSTYEYDYWGQGTQVTVSS” was “high polyreactivity”.
The value for “QVQLVVSGGGLVQAGGRLRLSCAASGFTFRRNARGWYRQAPGKVWELVAGITSSGTSTYYADSVKGRFTISRDNAKNTVNLQMNSLKPEDTAVYYCNADTPRTGGYWGQGTQVTVSS” was “high polyreactivity”; that for “QVQLVESGGGLVQAGGSLRLSCAASGITFEIYVMGWYRQAPGKERELVAAITSDDTTYADSVKGRFTISRDNAKNTVYLQMNSLKPEDTAVYYCAADYYGVGVGPYSPADEYDYWGQGTQVTVSS” was “low polyreactivity”; that for “QVQLVESGGGLVQAGGSLRLSCAASGLIFGPYAMGWYRQAPGKERELVAAISARGGSTRYADSVKGRFTISRDNAKNTVYLQMNSLKPEDTAVYYCAASTWYGYDYWGQGTQVTVSS” was “high polyreactivity”.
Regarding “QVQLVESGGGLVQAGGSLRLSCSASGLTLKRYAMGWYRQAPGQERELVAAISKSGGSTYYADSVKGRFTISRDNAKNTVYLQMNSLKPEDTAVYYCAADSYNLWDDYWGQGTQVTVSS”, the “polyreactivity (PSR sort gate)” value is on record as “low polyreactivity”.
As to “QVQLVESGGGLVQAGGSLRLSCAASGIIFTLYAMGWYRQAPGKERELVATISTGGGTYYADSVKGRFTISRDNAKNTVYLQMNSLKPEDTAVYYCAAKRYWNFRYDYWGQGTQVTVSS”, the “polyreactivity (PSR sort gate)” value was “high polyreactivity”.
As for “QVQLVESGGGLVQAGGSLRLSCAASGRTFLYYTMGWYRQAPGKERELVAAINWSGGRTYYADSVKGRFTISRDNAKNTVYLQMNSLKPEDTAVYYCNADSRYRYDYWGQGTQVTVSS”, the “polyreactivity (PSR sort gate)” value was “low polyreactivity”.
“QVQLVESGGGLVQAGGSLRLSCAASGRTFGWNAMGWSRQAPGKERELVAAISRTGNTYYADSVKGRFTISRDNAKNTVYLQMNSLKPEDTAVYYCAKGRYYTPTYFRGVDLYDYWGQGTQVTVSS”: the “polyreactivity (PSR sort gate)” value is reported as “low polyreactivity”.
Regarding “QVQLVESGGGLVQAGGSLRLSCAASGITFYHNAMGWYRPAPRKERELVATISRRGGRTYYADSVKGRFTISRDNAKNTVYLQMNSLKPEDTAVYYCAAAQKQSRYDYWGQGTQVTVSS”, the “polyreactivity (PSR sort gate)” value was “high polyreactivity”.
The value for “QVQLVESGGGLVQAGGSLRLRCAASGFTFYRKAMGWYRHAHGKERELVAAITRGGSTTYADSVKGRFTISRDNAKNTVYLQMNSLKPEDTAVYYCAVPQYLYLQAGHGYRYYYWGQGSQVTVSS” was “high polyreactivity”; that for “QVQLVESGGRLVQAGGTLPLSSAASGLIFGYYAMGFYIQAPGKERELDADISSGGSTNYADSVKGRFTISRENAKNTVYLQMNRLTPEDTAVFYCAARYSRWFGYCGQGTQVTVSS” was “high polyreactivity”; that for “QVQLQDSGGVQAGGSLRLSCAASGYISRSDVMGWYRQAPGKERELVATIINGTITYYADSVKGRFPISRDNAKNTVYLQMNSLNPEDTAVQYCAVVQSDTDSLYYWGQGTQVTVSS” was “low polyreactivity”.
Turning to “QVQLVESGGSLVQAGGSLRLSCAASGSTFDYYAMGWYRQAPGKARELHAAIDWSGDSTYYADSVKGRFTISRDNAKNTVYLQMNSLKREDSAVYYCPADLDSRGTYGRYEYWGQGTQVTVSS”, the “polyreactivity (PSR sort gate)” value is “low polyreactivity”.
As to “QVQLVESGGGLVQAGGSLRLSCAASGRIFGGNAMGWYRQAPGKERELVAAISQRGGSTSYADSVKGRFTISRDNAKNTVYLQMNSLKPEDTAVYYCAATWGYLRGSTKFYYWGQGTQVTVSS”, the “polyreactivity (PSR sort gate)” value is on record as “high polyreactivity”.
As for “QVQLVESGGGLVQAGGSLRLSCAASGSTLVRKAMGWYRQAPGKERELVAAISRSGGRTYYADSVKGRFTISRDNAKNTVYLQMNSLKPEDTAVYYCARLDGFSASDHDYWGQGTQVTVSS”, the “polyreactivity (PSR sort gate)” value is “high polyreactivity”.
The value for “QVQLVESGGGLVQAGGSLRLSCAASGRTFIRYTMGWYRQASGKERELVAAITSTGRTYYADSVKGRFTFSRDNAKNTVYLEMNSLKPEDTAVYYCAAKQSWEVYDYWGQGTQVTVSS” was “low polyreactivity”; that for “QVQLVESGGGLVQAGGSLRLSCAASGRTFVGNTMGWYRQAPGKERELVAAISSGGRTYYADSVKGRFTISRDNAKNTVYLQMNSLKPEDTAVYYCAARRRGKVVPTSQFDYWGQGTQVTVSS” was “high polyreactivity”.
In the case of “QVQLEESRGGLVQAGGSLRLSCAASGYIFSYYDMGWYRQAPGKERELVASITSSGGSTYYADSVKGRFTISRDNGKNTVYLQMNSLKPEDTAVYYCNADVYDTYSPLGYYFWGQGTQVTVSS”, the “polyreactivity (PSR sort gate)” value is listed as “low polyreactivity”.
The value for “QVQLVESGGGLVQAGGSLRLSCAASGSIFYRNVMGWYRQAPGKERELVASINFSGGSTYYADCVKGRFTISRDNAKNTVYLQMNSLKPEDTAVYYCAARTVHIYTRMYYWGQGTQVTVSS” was “high polyreactivity”; that for “QVQLVESGGGLVQAGGSLRLSCAASGRIFGRNTMGWYRQAPGKERELVASITFGGVSTYYADSVKGRFTISRDNAKNTVYLQMNSLKPEDTAVYYCAAVLINYEGYDSWGQGTQVTVSS” was “low polyreactivity”.
The value for “QVQLVESGGGLVQAGGSLRLSCAASGFTFSWYAMGWYRQAPGKEMELVAAIDDGGSTYYADSVKGRFTISRDNAKNTVYLQMNSLKPEDTAVYYCNARGYGTLNVRRERMDYWGQGTQVTVSS” was “high polyreactivity”; that for “QVQLVESGGGLVQAGGSLRLSCAASGLTFGTNAMGWYRQAPGKERELVAAISTSSGSTYYADSVKGRFTISRDNAKNTVYLQMNSLKPEDTAVYYCAAVTVTKLSYYRYYYWGQGTQVTVSS” was “low polyreactivity”; that for “QVQLVESGGGLVQAGGRLRLSCAATGSIFRGYAMGWYRQAPGKERELVAAISYRGGSTYYADSVKGRFTISRDNAKNTVYLQMNSLKPEDTAVDYWAAVYSHYWWFDYWGQGTQVTVSS” was “high polyreactivity”.
Regarding “QVQLVESGGGLVQAGGSLRLSCAASGSMFTNYAMGWYRQAPGQERELVAAISVGGGRTYYADSVKGRFTISRDNAQNTVYVQLNSLKPEDTAVYYCAARYPFGSLGRYGYWGQGTQVTVSS”, the “polyreactivity (PSR sort gate)” value is “high polyreactivity”.
The value for “QVQLVESGGGLVQAGGSLRLSCAASGRIFGWYAMGWYRQAPGKERELVAAISRGGGSTYYADSVKGRFTISRDNAKNTVYLQMNSLKPEDTAVYYCARDGGSLSHYHVGTGKFGYWGQGTQVTVSS” was “low polyreactivity”; that for “QVQLVESGGGLVQAGGSLRLSCAASGGIFYYNAMGWYRQAPGKERELLAAITFSGGGTYYADSVKGRFTISRDNAKNTVYFQMNSLKPEDTAVNYCAAKFYRYAWFLGYDYWGQGTQVTVSS” was “high polyreactivity”; that for “QVQLVESGGGLVQAGGSLRLSCAASGFTFVPYAMGWYRQAPGKERELVAAISYSGGSRYYADSVKGRFTISRDNAKNTVYLQMNSLKPEDTAVYYCAALRWYHYGYWGQGTQVTVSA” was “high polyreactivity”.
“QVQLVESGGGLVQAGGSLRLSCAASGRTFGQNTMGWYRQAPGKERELVAAIRNRGGSTYYADSVKGRFTISRDNAKKTGYVQMNSLKPEDTAVYYCAAYPYWKGDYWGQGTQVTVSS”: the “polyreactivity (PSR sort gate)” value was “high polyreactivity”.

Values taken from the nanobody polyreactivity screen of Harvey et al. (2022).
